Assay results from paper PMC6748616 (mAbs, 2019).

T1: IgV domain of mouse NOD SIRPα (Mus musculus, strain NOD, strain)
T1 chain: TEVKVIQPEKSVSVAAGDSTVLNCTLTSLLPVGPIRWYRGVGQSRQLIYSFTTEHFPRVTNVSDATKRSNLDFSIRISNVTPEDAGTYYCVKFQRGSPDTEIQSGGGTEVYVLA

T2: IgV domain of cynomolgus SIRPα (Macaca fascicularis, EHH65484.1 allele)
T2 chain: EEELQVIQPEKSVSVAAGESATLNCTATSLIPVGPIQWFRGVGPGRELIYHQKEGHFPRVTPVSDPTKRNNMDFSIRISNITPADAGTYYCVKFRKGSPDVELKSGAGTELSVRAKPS

T3: IgV domain of mouse BALB/c SIRPα (Mus musculus, strain BALB/c, strain)
T3 chain: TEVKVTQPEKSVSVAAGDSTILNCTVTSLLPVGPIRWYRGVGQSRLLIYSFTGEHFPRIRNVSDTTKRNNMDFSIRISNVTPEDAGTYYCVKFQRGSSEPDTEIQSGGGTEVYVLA


Legend:
Assay in all cases: SPR
[1] = target: T1, IgV domain of mouse NOD SIRPα
[2] = target: T2, IgV domain of cynomolgus SIRPα
[3] = target: IgV domain of human SIRPα v1 (Homo sapiens (Human)., UniProt P78324-1)
[4] = target: IgV domain of human SIRPγ (Homo sapiens, SIRPγ NP_061026.2, UniProt Q9P1W8)
[5] = target: T3, IgV domain of mouse BALB/c SIRPα
[6] = target: IgV domain of human SIRPα v2 (Homo sapiens, SIRPα allele v2 …, strain)
[7] = target: IgV domain of human SIRPβ1 (Homo sapiens, SIRPβ1 NP_006056.2, UniProt O00241)
[8] = target: IgV domain of mouse C57BL/6 SIRPα (Mus musculus, strain C57BL/6, UniProt P97797, strain)

Chain of IgV domain of human SIRPα v1 (P78324 31-149): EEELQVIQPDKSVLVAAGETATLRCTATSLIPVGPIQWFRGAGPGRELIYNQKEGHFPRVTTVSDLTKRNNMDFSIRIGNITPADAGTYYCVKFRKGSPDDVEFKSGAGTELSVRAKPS

Binder | Kd [1] [nM] | Kd [2] [nM] | Kd [3] [nM] | Kd [4] [nM] | Kd [5] [nM] | Kd [6] [nM] | Kd [7] [nM] | Kd [8] [nM] | binding result [8] | binding result [4] | binding result [7]
anti-SIRPα antibody clone 115, full-length IgG1 (antibody, V domains shown) VH: DVQLVESGGGVVRPGESLRLSCAASGFSFSSYAMNWVRQAPGEGLEWVSRINSGGGGTDYAESVKGRFTISRDNSENTLYLQMNSLRAEDTAVYYCAKQYDWNSFFDYWGLGALVTVSS VL: ETVLTQSPATLSVSPGERATLSCRASQTVGSKLAWHQQKPGQAPRLLIYDATNRATGISDRFSGSGSGTDFTLTISSLQTEDSAVYYCQQYYYWPPYRFGGGTKVEIK |  | 2.41 | 0.426 |  |  | 1.86 |  |  | no binding (tested: 100 nM) | binds | binds
anti-SIRPα clone 218, scFv-Fc (scFv, V domains shown) VH: DVQLVESGGGVVRPGESLTLSCTASGFTFTSSTMNWVRQAPGEGLDWVSSISTSGVITYYADSVKGRATISRDNSKNTLYLRLFSLRADDTAIYYCATDTFDHWGPGTLVTVSS VL: ALTQPASVSANPGETVKITCFGSSGNYGWFQQKSPGSAPVTVIHYNNKRPSDIPSRFSGSKSGSTGTLTITGVRAEDEAVYFCGAWETGSATFGAGTTLTVL |  | 0.0599 | 0.123 | 0.0636 |  | 0.276 |  |  | no binding (tested: 100 nM) |  | binds

The remaining lines, values ahead:

Kd [1] [nM] | Kd [2] [nM] | Kd [3] [nM] | Kd [4] [nM] | Kd [5] [nM] | Kd [6] [nM] | Kd [7] [nM] | Kd [8] [nM] | binding result [8] | binding result [4] | binding result [7] | Binder
0.554 | 2.15 | 0.458 | 23.9 | 0.35 | 1.63 | 4.35 | 12.7 |  |  |  | anti-SIRPα antibody clone 136, full-length IgG1 (antibody, V domains shown) VH: not shown VL: ETVLTQSPGTLTLSPGERATLTCRASQSVYTYLAWYQEKPGQAPRLLIYGASSRATGIPDRFSGSGSGTEFTLTISSLQSEDFAVYYCQQYYDRPPLTFGGGTKVEIK
 | 0.112 | 0.183 | 0.267 |  | 0.0682 | 0.342 |  | no binding (tested: 100 nM) |  |  | anti-SIRPα antibody clone 119, full-length IgG1 (antibody, V domains shown) VH: DVQLLESGGGVVQPGGSLRLSCAASGFSFSNFAMTWVRQAPGEGLEWVSTIGSGDTYYADSVKGRFTISRDNSKNTLYLQMNSLRAEDTAVYYCAKDSTVSWSGDFFDYWGQGTLVTVSS VL: EIVLTQSPATLSVSPGERATFSCRASQNVKNDLAWYQQRPGQAPRLLIYAARIRETGIPERFSGSGSGTEFTLTITSLQSEDFAVYYCQQYYDWPPFTFGGGTKVEIK
1.63 | 2.29 | 0.162 | 83.6 | 1.16 | 0.0767 | 1.63 | 3.65 |  |  |  | anti-SIRPα antibody clone 3, full-length IgG1 (antibody, V domains shown) VH: AVTLDESGGGLQTPGGALSLVCKASGFIFSDYGMNWVRQAPGKGLEFVAQITSGSRTYYGAAVKGRATISRDNRQSTVKLQLNNLRAEDTGIYFCARDFGSGVGSIDAWGNGTEVIVSS VL: ALTQPASVSANLGGTVKITCSGSRGRYGWYQQRSPGSAPVTVIYRDNQRPSNIPSRFSSSTSGSTSTLTITGVQADDESVYFCGSYDGSIDIFGAGTTLTVL
